# Experimental data reported in patent publication US8691960B2, “Oxidoreductases for enantioselective reactions” (Duke University, priority 2012, dated 2014).
# Read-outs that look alike come from different tables or passages of the source.
# How the values were obtained:
# [1] = NADH oxidation rate of purified HIDH enzymes with 2-oxoadipate (fluorescence / UV 340 nm); type: biochemical; conditions: for rate of NADH oxidation in the presence of 2-oxoadipate: 15 mM 2-oxoadipate, 100 μM NADH, 0.4 μg purified enzyme
# Procedure: (§1) NADH, 2-oxoadipate, 2-oxoglutarate, 2-heptandioate, and MgCl2 were from Sigma. Standard reaction mixes contained 15 mM 2-oxoadipate, 100 μM NADH, and a reaction buffer with final concentrations of 20 mM MgCl2 and 500 mM HEPES, pH 7.3. NADH oxidation was monitored by the decrease in fluorescence with excitation of 340 nm and emission of 450 nm on a PolarSTAR Optima plate reader (BMG Labtech). Fluorescence monitored reactions were carried out in 10-μL volumes in a 384-well black microplate (Greiner 788076) covered with clear optical film. The levels of fluorescence were converted to NADH concentrations based on standards of NADH in reaction buffer containing BSA. Reactions with high amounts of NADH were monitored by the UV absorbance of NADH at 340 nm in 40-μL reaction volumes in clear 96-well plates.
# (§2) Reaction rates are NADH oxidation per unit time per unit of purified enzyme or crude lysate and 1 Unit (U) is 1 μmolNADH min^−1 mgenzyme^−1. Rates are initial rates calculated by least squares linear regression on the first 10 minutes of the reaction. For KM determination, concentrations of substrate/cofactors at least 5×-higher than the KM were used, while the species of interest was varied in concentration; substrate/cofactor concentrations: 500 μM NADH; 15 mM 2-oxoadipate; 20 mM MgCl2. Reported α-hydroxyadipate (2-hydroxy adpic acid) Vmax values were obtained from 2-oxoadipate KM determination experiments. Michaelis-Menten KM and Vmax parameters were estimated by fitting data to a curve using nonlinear regression in GraphPad Prism 5.0 (GraphPad Software, La Jolla, Calif.).
# (§3) Assays were performed with 40 ng/μL enzyme, 15 mM 2-oxoadipate, 100 μM NADH, 20 mM MgCl2 and 100 mM HEPES, pH 7.3 in 10 or 20 μL volumes in 384-well black microplates. NADH concentration was monitored by the decrease in fluorescence (excitation wavelength: 340 nm; emission wavelength: 450 nm) on a fluorescent plate reader. The fluorescence intensities were converted to NADH concentrations based on NADH standards. Reactions with high amounts of NADH (>300 μM) were monitored by the UV absorbance of NADH at 340 nm in a 40 μL reaction volume in a clear 96-well plate on the same plate reader. Reactions with ScHIDH were carried out at 25° C. and reactions with TtHIDH were carried out at 45° C. Reported rates are initial rates from the first 10 minutes of reaction. For KM determination, concentrations of substrate at least 5×-higher than the KM were used (for NADH, 500 μM; for 2-oxoadipate, 15 mM) while the substrate of interest was varied in concentration. KM and Vmax were estimated by fitting data to equation (1) using nonlinear regression, where x is substrate concentration and y is the rate. y=Vmax·x/KM+x (1) Rate data for ScHIDH-R143C, -R143H, and -R143K are summarized in Table 3.
# [2] = NADH oxidation rate of purified HIDH mutants with 2-oxoglutarate as substrate; type: biochemical; conditions: ScHIDH-R143H
# Procedure: as §1
# (§4) Reaction rates are NADH oxidation per unit time per unit of purified enzyme or crude lysate and 1 Unit (U) is 1 μmolNADH min^−1 mgenzyme^−1. Rates are initial rates calculated by least squares linear regression on the first 10 minutes of the reaction. For KM determination, concentrations of substrate/cofactors at least 5×-higher than the KM were used, while the species of interest was varied in concentration; substrate/cofactor concentrations: 500 μM NADH; 15 mM 2-oxoadipate; 20 mM MgCl2. […]
# [3] = NADH oxidation rate of purified ScHIDH-R143H with 2-oxoheptanedioic acid as substrate; type: biochemical
# Procedure: as §1, §4
# [4] = NADH oxidation with 2-oxoadipate plus CO2 added as NaHCO3 (reductive carboxylation); type: biochemical
# Procedure: as §1, §2
# [5] = Enantiospecific LC-MS/MS quantification of (R)- and (S)-2-hydroxyadipate product; type: biochemical; conditions: for concentration of (R)-2-hydroxyadipate after 10 h: ScHIDH, initially 2 mM NADH and 2 mM 2-oxoadipate
# Procedure: Quantitative, enantiospecific LC-MS/MS was performed based on the procedure described for 2-hydroxyglutarate. Jin et al., PLoS one 6, e16812: 1-8 (2011); Struys, et al., Clin. Chem. 50: 1391-1395 (2004). To 20 μL of reaction mix, 2 μL of 130 μg/mL of a racemic mixture of [3,3,4,4-^2H4]-2-hydroxyglutarate (internal standard) in water was added and the mixture dried by vacuum centrifuge (50° C., 15 min). The dry residue was treated with 50 mg/mL freshly prepared diacetyl-L-tartaric anhydride (Sigma) in dichloromethane/glacial acetic acid (4:1 by volume) and heated (75° C., 30 min). After drying (50° C., 15 min) the residue was dissolved in 100 μL of LC mobile phase A (see below) for analysis. An Agilent 1200 series HPLC (Santa Clara, Calif.) was used for liquid chromatography (LC) and a Sciex/Applied Biosystems API 3200 QTrap (Carlsbad, Calif.) was used for triple quadrupole mass spectrometry (MS/MS). Mobile phase A: water, 3% acetonitrile, 280 μL ammonium hydroxide (^˜25%), pH adjusted to 3.6 with formic acid (^˜98%). Mobile phase B: methanol. Analytical column: Kinetex C-18, 150×4.6 mm, 2.6 μm, and SafeGuard C-18 4×3 mm guard-column from Phenomenex (Torrance, Calif.). Column temperature: 45° C. Elution gradient at 1 mL/min flow rate: 0-1 min 0% B, 1-2 min 0-100% B, 2-3.5 min 100% B, 3.5-4 min 100-0% B, 4-10 min 0% B. Injection volume: 10 μL. Q1/Q3 (m/z) transitions were monitored: 377/161, 2-hydroxyadipate (2HA) and 367/151, [3,3,4,4-^2H4]-2-hydroxyglutarate (2HG-d4). To calibrate, 0, 0.16, 0.54, 1.8, 6, and 20 μg/mL 2-hydroxyadipate (Sigma), synthesized as described above, was analyzed in reaction buffer. (R)- and (S)-enantiomers were discriminated based on time of elution from the HPLC column, using the relative elution time for (R)-2-hydroxyglutarate compared to the racemic mixture of 2-hydroxyglutarate described previously to identify the (R)-2-hydroxyadipate enantiomer. Jin et al., PLoS one 6, e16812: 1-8 (2011). Standards were analyzed alongside experimental samples. Accuracy acceptance criteria were 85% for all but the lowest level (0.16 μg/mL, 80%).
# [6] = Kinetic characterization of ScHIDH mutants: KM 2-oxoadipate and Vmax; type: biochemical
# Procedure: as §2, §3
# [7] = Kinetic characterization of ScHIDH mutants: KM NADH; type: biochemical
# Procedure: as §2, §3
# [8] = Magnesium dependence of ScHIDH-R143H; type: biochemical
# Procedure: as §3
# ScHIDH-R143H activity was assayed at various MgCl2 concentrations under the standard reaction conditions described in Example 11. The rate is relative to the rate at 20 mM MgCl2. […]
# [9] = pH dependence of ScHIDH-R143H; type: biochemical
# Procedure: as §3
# ScHIDH-R143H activity was assayed in HEPES buffer at various pH under the standard reaction conditions described in Example 11, above. The rate is relative to the rate at pH 7.4. […]
# [10] = ScHIDH, literature; read-out: KM,HCO3, previous observation; cited from earlier work
# [11] = literature (Lin et al. 2007); cited from earlier work
# [12] = literature; cited from earlier work
molecule,measurement,setting,value
"ScHIDH-R143H: Saccharomyces cerevisiae homoisocitrate dehydrogenase R143H mutant, an (R)-2-hydroxyadipate dehydrogenase (protein, ScHIDH R143H polypeptide, Saccharomyces cerevisiae homoisocitrate dehydrogenase R143H mutant, an (R)-2-hydroxyadipate dehydrogenase) MFRSVATRLSACRGLASNAARKSLTIGLIPGDGIGKEVIPAGKQVLENLNSKHGLSFNFIDLYAGFQTFQETGKALPDETVKVLKEQCQGALFGAVQSPTTKVEGYSSPIVALRREMGLFANVRPVKSVEGEKGKPIDMVIVHENTEDLYIKIEKTYIDKATGTRVADATKRISEIATRRIATIALDIALKRLQTRGQATLTVTHKSNVLSQSDGLFREICKEVYESNKDKYGQIKYNEQIVDSMVYRLFREPQCFDVIVAPNLYGDILSDGAAALVGSLGVVPSANVGPEIVIGEPCHGSAPDIAGKGIANPIATIRSTALMLEFLGHNEAAQDIYKAVDANLREGSIKTPDLGGKASTQQVVDDVLSRL",rate of NADH oxidation in the presence of 2-oxoadipate,[1]; ScHIDH,0.0096±0.000014 U
same,decrease of NADH concentration after 10 h compared to a buffer control,"[1]; ScHIDH, initially 2 mM NADH and 2 mM 2-oxoadipate, 10 h",0.62 mM
same,"NADH oxidation rate, reaction containing no substrate","[1]; ScHIDH-R143H, no substrate",< 0.001 U
same,NADH oxidation rate in the presence of 15 mM 2-oxoglutarate,[2],< 0.001 U
same,NADH oxidation rate in the presence of 15 mM 2-oxoheptanedioic acid,[3],< 0.001 U
same,stimulation by addition of NaHCO3,[4]; up to 60 mM NaHCO3,not stimulated
same,concentration of (R)-2-hydroxyadipate after 10 h,[5],0.97 mM
same,Enantiomeric Excess,"[5]; Table 3, (R)-2-hydroxyadipate product",> 99.1%
same,Km,"[6]; Table 3, 40 ng/μL enzyme, 500 μM NADH, 20 mM MgCl2, pH 7.3, 25° C.",2000 µM
same,Vmax,"[6]; Table 3, from 2-oxoadipate KM experiments",0.036 µmol/min/mg
same,Km,[6]; purified enzyme,1400 ± 250 µM
same,maximal velocity (Vmax),[6]; purified enzyme,0.020±0.0027 U
same,Km,"[7]; Table 3, 15 mM 2-oxoadipate, 20 mM MgCl2, pH 7.3, 25° C.",88 µM
same,Km,[7]; purified enzyme,85 ± 21 µM
same,Km,"[8]; Table 3, read-out: KM MgCl2",1200 µM
same,Km,"[8]; various MgCl2 concentrations, standard conditions, read-out: KM for MgCl2",1100 µM
same,pH optimum,"[9]; HEPES buffer at various pH, standard conditions",7.4
same,pH optimum,"[9]; Table 3, HEPES buffer",7.4
"ScHIDH-WT: wild type Saccharomyces cerevisiae homoisocitrate dehydrogenase (encoded by LYS12) (protein, listed as Saccharomyces cerevisiae) MFRSVATRLSACRGLASNAARKSLTIGLIPGDGIGKEVIPAGKQVLENLNSKHGLSFNFIDLYAGFQTFQETGKALPDETVKVLKEQCQGALFGAVQSPTTKVEGYSSPIVALRREMGLFANVRPVKSVEGEKGKPIDMVIVRENTEDLYIKIEKTYIDKATGTRVADATKRISEIATRRIATIALDIALKRLQTRGQATLTVTHKSNVLSQSDGLFREICKEVYESNKDKYGQIKYNEQIVDSMVYRLFREPQCFDVIVAPNLYGDILSDGAAALVGSLGVVPSANVGPEIVIGEPCHGSAPDIAGKGIANPIATIRSTALMLEFLGHNEAAQDIYKAVDANLREGSIKTPDLGGKASTQQVVDDVLSRL",rate of NADH oxidation in the presence of 2-oxoadipate,[1]; ScHIDH,< 0.001 U
same,rate of NADH oxidation when CO2 was added as HCO3,"[4]; ScHIDH, 2-oxoadipate, NADH",0.061±0.0090 U
same,Km,"[4]; ScHIDH, read-out: KM,HCO3",10000 ± 3700 µM
same,concentration of (R)-2-hydroxyadipate after 10 h,[5],no 2-hydroxyadipate accumulation was observed
same,Km,[10],16300 µM
same,rate for homoisocitrate relative to isocitrate,[11],216 fold
"TtHIDH-WT: wild type Thermus thermophilus homoisocitrate dehydrogenase (protein, listed as Thermus thermophilus) MAYRICLIEGDGIGHEVIPAARRVLEATGLPLEFVEAEAGWETFERRGTSVPEETVEKILSCHATLFGAATSPTRKVPGFFGAIRYLRRRLDLYANVRPAKSRPVPGSRPGVDLVIVRENTEGLYVEQERRYLDVAIADAVISKKASERIGRAALRIAEGRPRKTLHIAHKANVLPLTQGLFLDTVKEVAKDFPLVNVQDIIVDNCAMQLVMRPERFDVIVTTNLLGDILSDLAAGLVGGLGLAPSGNIGDTTAVFEPVHGSAPDIAGKGIANPTAAILSAAMMLDYLGEKEAAKRVEKAVDLVLERGPRTPDLGGDATTEAFTEAVVEALKSL",rate of NADH consumption with NaHCO3 added,"[4]; TtHIDH, 2-oxoadipate and NADH, CO2 added as NaHCO3",0.14±0.022 U
same,increase of (R)-2-hydroxyadipate concentration after 2 h,"[5]; TtHIDH, 100 μM NADH, 15 mM 2-oxoadipate, 45° C., 2 h",not observed
same,efficiency for 2-oxoglutarate relative to 2-oxoadipate,[12],20 times
